In the supplement of paper PMC11316812:
± gives the standard deviation of the averaged measurements.

Legend:
MCF7 = assay: percentage of EdU-negative (G0-arrested) nuclei per well, 72 h; higher = more G0 arrest; conditions: reference: sequence is the full UniProt precursor, the tested protein was the secreted form or ectodomain
hTERT-HMEC = assay: as above; conditions: reference: sequence is the full UniProt precursor, the tested protein was the secreted form or ectodomain
[1] = protein concentration 0.0294675 µM
[2] = protein concentration 0.294675 µM
[3] = protein concentration 0.0125714 µM
[4] = protein concentration 0.125714 µM
[5] = protein concentration 0.0228571 µM
[6] = protein concentration 0.228571 µM
[7] = protein concentration 0.02775 µM
[8] = protein concentration 0.2775 µM
[9] = protein concentration 0.03125 µM
[10] = protein concentration 0.3125 µM
[11] = protein concentration 0.018845 µM
[12] = protein concentration 0.18845 µM
[13] = protein concentration 0.012475 µM
[14] = protein concentration 0.12475 µM
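Further: secreted proteins added to cultured cells, EdU pulse at the end, nuclei found by Hoechst imaging, EdU status from nuclear versus surrounding ring intensity ratio, PBS as neutral control.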

MRAWIFFLLCLAGRALAAPQQEALPDETEVVEETVAEVTEVSVGANPVQVEVGEFDDGAEETEEEVVAENPCQNHHCKHGKVCELDENNTPMCVCQDPTSCPAPIGEFEKVCSNDNKTFDSSCHFFATKCTLEGTKKGHKLHLDYIGPCKYIPPCLDSELTEFPLRMRDWLKNVLVTLYERDEDNNLLTEKQKLRVKKIHENEKRLEAGDHPVELLARDFEKNYNMYIFPVHWQFGQLDQHPIDGYLSHTELAPLRAPLIPMEHCTTRFFETCDLDNDKYIALDEWAGCFGIKQKDIDKDLVI
percentage of EdU-negative (MCF7; [1]): 26.73 ± 0.018% | percentage of EdU-negative (MCF7; [2]): 24.8 ± 0.39% | percentage of EdU-negative (hTERT-HMEC; [1]): 4.83 ± 0.18% | percentage of EdU-negative (hTERT-HMEC; [2]): 5.23 ± 0.79%

MRENMARGPCNAPRWASLMVLVAIGTAVTAAVNPGVVVRISQKGLDYASQQGTAALQKELKRIKIPDYSDSFKIKHLGKGHYSFYSMDIREFQLPSSQISMVPNVGLKFSISNANIKISGKWKAQKRFLKMSGNFDLSIEGMSISADLKLGSNPTSGKPTITCSSCSSHINSVHVHISKSKVGWLIQLFHKKIESALRNKMNSQVCEKVTNSVSSELQPYFQTLPVMTKIDSVAGINYGLVAPPATTAETLDVQMKGEFYSENHHNPPPFAPPVMEFPAAHDRMVYLGLSDYFFNTAGLVYQEAGVLKMTLRDDMIPKESKFRLTTKFFGTFLPEVAKKFPNMKIQIHVSASTPPHLSVQPTGLTFYPAVDVQAFAVLPNSSLASLFLIGMHTTGSMEVSAESNRLVGELKLDRLLLELKHSNIGPFPVELLQDIMNYIVPILVLPRVNEKLQKGFPLPTPARVQLYNVVLQPHQNFLLFGADVVYK
percentage of EdU-negative (MCF7; [3]): 24.5 ± 2.8% | percentage of EdU-negative (MCF7; [4]): 29.1 ± 5% | percentage of EdU-negative (hTERT-HMEC; [3]): 6.02 ± 1.5% | percentage of EdU-negative (hTERT-HMEC; [4]): 35.1 ± 4%

MRERPRLGEDSSLISLFLQVVAFLAMVMGTHTYSHWPSCCPSKGQDTSEELLRWSTVPVPPLEPARPNRHPESCRASEDGPLNSRAISPWRYELDRDLNRLPQDLYHARCLCPHCVSLQTGSHMDPRGNSELLYHNQTVFYRRPCHGEKGTHKGYCLERRLYRVSLACVCVRPRVMG [Q9H293]
percentage of EdU-negative (MCF7; [5]): 24 ± 0.49% | percentage of EdU-negative (MCF7; [6]): 36.9 ± 1.7% | percentage of EdU-negative (hTERT-HMEC; [5]): 5.07 ± 0.33% | percentage of EdU-negative (hTERT-HMEC; [6]): 5.25 ± 1%

MRFFCARCCSFGPEMPAVQLLLLACLVWDVGARTAQLRKANDQSGRCQYTFSVASPNESSCPEQSQAMSVIHNLQRDSSTQRLDLEATKARLSSLESLLHQLTLDQAARPQETQEGLQRELGTLRRERDQLETQTRELETAYSNLLRDKSVLEEEKKRLRQENENLARRLESSSQEVARLRRGQCPQTRDTARAVPPGSREVSTWNLDTLAFQELKSELTEVPASRILKESPSGYLRSGEGDTGCGELVWVGEPLTLRTAETITGKYGVWMRDPKPTYPYTQETTWRIDTVGTDVRQVFEYDLISQFMQGYPSKVHILPRPLESTGAVVYSGSLYFQGAESRTVIRYELNTETVKAEKEIPGAGYHGQFPYSWGGYTDIDLAVDEAGLWVIYSTDEAKGAIVLSKLNPENLELEQTWETNIRKQSVANAFIICGTLYTVSSYTSADATVNFAYDTGTGISKTLTIPFKNRYKYSSMIDYNPLEKKLFAWDNLNMVTYDIKLSKM
percentage of EdU-negative (MCF7; [7]): 23.1 ± 3.6% | percentage of EdU-negative (MCF7; [8]): 22.8 ± 0.49% | percentage of EdU-negative (hTERT-HMEC; [7]): 5.22 ± 0.79% | percentage of EdU-negative (hTERT-HMEC; [8]): 5.83 ± 0.68%

MRFLAATFLLLALSTAAQAEPVQFKDCGSVDGVIKEVNVSPCPTQPCQLSKGQSYSVNVTFTSNIQSKSSKAVVHGILMGVPVPFPIPEPDGCKSGINCPIQKDKTYSYLNKLPVKSEYPSIKLVVEWQLQDDKNQSLFCWEIPVQIVSHL
percentage of EdU-negative (MCF7; [9]): 25.6 ± 0.29% | percentage of EdU-negative (MCF7; [10]): 27.1 ± 2% | percentage of EdU-negative (hTERT-HMEC; [9]): 4.48 ± 0.41% | percentage of EdU-negative (hTERT-HMEC; [10]): 5.49 ± 0.12%

MRGAARAAWGRAGQPWPRPPAPGPPPPPLPLLLLLLAGLLGGAGAQYSSDRCSWKGSGLTHEAHRKEVEQVYLRCAAGAVEWMYPTGALIVNLRPNTFSPARHLTVCIRSFTDSSGANIYLEKTGELRLLVPDGDGRPGRVQCFGLEQGGLFVEATPQQDIGRRTTGFQYELVRRHRASDLHELSAPCRPCSDTEVLLAVCTSDFAVRGSIQQVTHEPERQDSAIHLRVSRLYRQKSRVFEPVPEGDGHWQGRVRTLLECGVRPGHGDFLFTGHMHFGEARLGCAPRFKDFQRMYRDAQERGLNPCEVGTD [Q641Q3]
percentage of EdU-negative (MCF7; [11]): 26.1 ± 2.3% | percentage of EdU-negative (MCF7; [12]): 35.6 ± 1.1% | percentage of EdU-negative (hTERT-HMEC; [11]): 5.45 ± 1.1% | percentage of EdU-negative (hTERT-HMEC; [12]): 18.2 ± 6%

MRGANAWAPLCLLLAAATQLSRQQSPERPVFTCGGILTGESGFIGSEGFPGVYPPNSKCTWKITVPEGKVVVLNFRFIDLESDNLCRYDFVDVYNGHANGQRIGRFCGTFRPGALVSSGNKMMVQMISDANTAGNGFMAMFSAAEPNERGDQYCGGLLDRPSGSFKTPNWPDRDYPAGVTCVWHIVAPKNQLIELKFEKFDVERDNYCRYDYVAVFNGGEVNDARRIGKYCGDSPPAPIVSERNELLIQFLSDLSLTADGFIGHYIFRPKKLPTTTEQPVTTTFPVTTGLKPTVALCQQKCRRTGTLEGNYCSSDFVLAGTVITTITRDGSLHATVSIINIYKEGNLAIQQAGKNMSARLTVVCKQCPLLRRGLNYIIMGQVGEDGRGKIMPNSFIMMFKTKNQKLLDALKNKQC [Q9UKZ9]
percentage of EdU-negative (MCF7; [13]): 25.27 ± 0.085% | percentage of EdU-negative (MCF7; [14]): 25.1 ± 1.3% | percentage of EdU-negative (hTERT-HMEC; [13]): 4.6 ± 0.68% | percentage of EdU-negative (hTERT-HMEC; [14]): 7.45 ± 0.19%
